Experimental data from PMC7549315.

Key:
SAF-A^CtermΔ–GFP = test: co-IP
SAF-A^RGG1-7Δ–GFP = SAF-A^RGG1-7Δ–GFP (UniProt Q00839); test: co-IP
Sequence of SAF-A^RGG1-7Δ–GFP (Q00839 whole entry, stated change not applied): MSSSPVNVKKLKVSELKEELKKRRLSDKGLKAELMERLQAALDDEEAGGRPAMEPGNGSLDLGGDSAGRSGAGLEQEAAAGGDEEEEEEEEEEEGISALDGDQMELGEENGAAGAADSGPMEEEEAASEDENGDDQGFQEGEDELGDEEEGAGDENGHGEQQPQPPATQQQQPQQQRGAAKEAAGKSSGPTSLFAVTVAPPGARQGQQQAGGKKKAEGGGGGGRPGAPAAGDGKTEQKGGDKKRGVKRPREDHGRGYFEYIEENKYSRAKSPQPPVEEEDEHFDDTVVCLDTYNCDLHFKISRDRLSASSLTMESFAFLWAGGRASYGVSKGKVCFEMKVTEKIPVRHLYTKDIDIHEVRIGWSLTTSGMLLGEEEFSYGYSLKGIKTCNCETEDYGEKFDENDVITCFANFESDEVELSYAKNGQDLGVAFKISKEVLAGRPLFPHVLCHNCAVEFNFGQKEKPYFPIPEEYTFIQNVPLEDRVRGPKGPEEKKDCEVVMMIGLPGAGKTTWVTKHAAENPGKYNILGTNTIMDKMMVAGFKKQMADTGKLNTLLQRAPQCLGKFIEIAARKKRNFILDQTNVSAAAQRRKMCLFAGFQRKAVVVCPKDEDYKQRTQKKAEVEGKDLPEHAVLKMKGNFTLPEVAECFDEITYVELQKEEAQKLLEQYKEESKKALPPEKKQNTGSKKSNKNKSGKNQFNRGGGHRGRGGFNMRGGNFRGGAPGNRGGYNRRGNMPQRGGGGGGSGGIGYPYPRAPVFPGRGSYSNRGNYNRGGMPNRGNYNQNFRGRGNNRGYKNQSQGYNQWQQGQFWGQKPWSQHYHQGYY

Sequence of SAF-A^CtermΔ–GFP (Q00839 2-825, stated change not applied): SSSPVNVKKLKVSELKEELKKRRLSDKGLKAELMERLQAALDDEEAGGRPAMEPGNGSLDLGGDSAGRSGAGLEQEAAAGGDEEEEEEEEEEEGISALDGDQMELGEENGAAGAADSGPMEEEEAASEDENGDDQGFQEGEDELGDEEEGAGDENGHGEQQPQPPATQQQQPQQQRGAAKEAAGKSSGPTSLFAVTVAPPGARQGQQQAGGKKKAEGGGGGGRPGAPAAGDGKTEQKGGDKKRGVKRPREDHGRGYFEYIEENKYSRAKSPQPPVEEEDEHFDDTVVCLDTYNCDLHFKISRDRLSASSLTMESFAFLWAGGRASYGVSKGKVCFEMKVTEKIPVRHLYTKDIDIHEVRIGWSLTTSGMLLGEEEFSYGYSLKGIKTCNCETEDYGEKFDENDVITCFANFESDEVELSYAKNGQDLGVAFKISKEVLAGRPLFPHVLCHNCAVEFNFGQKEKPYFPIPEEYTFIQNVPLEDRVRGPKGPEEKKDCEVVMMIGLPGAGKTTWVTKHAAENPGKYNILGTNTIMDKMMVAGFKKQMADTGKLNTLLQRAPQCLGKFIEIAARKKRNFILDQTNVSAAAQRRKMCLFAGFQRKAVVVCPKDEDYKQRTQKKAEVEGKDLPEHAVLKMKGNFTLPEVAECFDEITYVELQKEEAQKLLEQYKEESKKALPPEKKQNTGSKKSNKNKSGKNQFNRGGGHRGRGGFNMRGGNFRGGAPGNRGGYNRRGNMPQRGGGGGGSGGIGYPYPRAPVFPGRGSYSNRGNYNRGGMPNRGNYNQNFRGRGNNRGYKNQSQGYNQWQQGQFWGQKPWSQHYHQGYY

- fold reduction in histone H3 interaction relative to SAF-A^wt–GFP (SAF-A^CtermΔ–GFP): > 7 fold
- fold reduction in histone H3 interaction relative to SAF-A^wt–GFP (SAF-A^RGG1-7Δ–GFP): > 7 fold
Substance: histone H3 (from UniProt P68431 1-136) (natural protein)
